{"source": "FireProtDB (doi:10.1021/bi00173a036)", "conditions": "Bos taurus, Thermal, DSC, reversible: yes, whole UniProt chain shown", "data": [{"protein": "Alpha-lactalbumin wild type, P00711 (protein) MMSFVSLLLVGILFHATQAEQLTKCEVFRELKDLKGYGGVSLPEWVCTTFHTSGYDTQAIVQNNDSTEYGLFQINNKIWCKDDQNPHSSNICNISCDKFLDDDLTDDIMCVKKILDKVGINYWLAHKALCSEKLDQWLCEKL", "values": [{"measurement": "heat capacity change of unfolding", "setting": "pH 3, 44.3 °C, acetate 10 mM", "result": 1.3, "unit": "kcal/mol/K"}, {"measurement": "unfolding enthalpy (calorimetric)", "setting": "pH 3, 44.3 °C, acetate 10 mM", "result": 25.6, "unit": "kcal/mol"}, {"measurement": "heat capacity change of unfolding", "setting": "pH 3.2, 29.8 °C, acetate 10 mM", "result": 1.5, "unit": "kcal/mol/K"}, {"measurement": "unfolding enthalpy (calorimetric)", "setting": "pH 3.2, 29.8 °C, acetate 10 mM", "result": 21.4, "unit": "kcal/mol"}, {"measurement": "Tm", "setting": "pH 3.2, acetate 10 mM", "result": 29.8, "unit": "°C"}, {"measurement": "heat capacity change of unfolding", "setting": "pH 3.2, acetate 10 mM", "result": 0.92, "unit": "kcal/mol/K"}, {"measurement": "unfolding enthalpy (calorimetric)", "setting": "pH 3.2, acetate 10 mM", "result": 36.1, "unit": "kcal/mol"}, {"measurement": "unfolding enthalpy (van 't Hoff)", "setting": "pH 3.2, acetate 10 mM", "result": 43.5, "unit": "kcal/mol"}, {"measurement": "heat capacity change of unfolding", "setting": "pH 3.5, 41 °C, acetate 10 mM", "result": 1.6, "unit": "kcal/mol/K"}, {"measurement": "unfolding enthalpy (calorimetric)", "setting": "pH 3.5, 41 °C, acetate 10 mM", "result": 13.1, "unit": "kcal/mol"}, {"measurement": "Tm", "setting": "pH 3.5, acetate 10 mM", "result": 41, "unit": "°C"}, {"measurement": "heat capacity change of unfolding", "setting": "pH 3.5, acetate 10 mM", "result": 1.19, "unit": "kcal/mol/K"}, {"measurement": "unfolding enthalpy (calorimetric)", "setting": "pH 3.5, acetate 10 mM", "result": 47.8, "unit": "kcal/mol"}, {"measurement": "unfolding enthalpy (van 't Hoff)", "setting": "pH 3.5, acetate 10 mM", "result": 51.4, "unit": "kcal/mol"}, {"measurement": "heat capacity change of unfolding", "setting": "pH 4.2, 57 °C, acetate 10 mM", "result": 1.7, "unit": "kcal/mol/K"}, {"measurement": "unfolding enthalpy (calorimetric)", "setting": "pH 4.2, 57 °C, acetate 10 mM", "result": 2.72, "unit": "kcal/mol"}, {"measurement": "Tm", "setting": "pH 4.2, acetate 10 mM", "result": 57, "unit": "°C"}, {"measurement": "heat capacity change of unfolding", "setting": "pH 4.2, acetate 10 mM", "result": 1.61, "unit": "kcal/mol/K"}, {"measurement": "unfolding enthalpy (calorimetric)", "setting": "pH 4.2, acetate 10 mM", "result": 64.8, "unit": "kcal/mol"}, {"measurement": "unfolding enthalpy (van 't Hoff)", "setting": "pH 4.2, acetate 10 mM", "result": 59.8, "unit": "kcal/mol"}, {"measurement": "Tm", "setting": "pH 8, Tris-HCl 5 mM", "result": 64.3, "unit": "°C"}, {"measurement": "heat capacity change of unfolding", "setting": "pH 8, Tris-HCl 5 mM", "result": 1.7, "unit": "kcal/mol/K"}, {"measurement": "unfolding enthalpy (calorimetric)", "setting": "pH 8, Tris-HCl 5 mM", "result": 70.6, "unit": "kcal/mol"}, {"measurement": "unfolding enthalpy (van 't Hoff)", "setting": "pH 8, Tris-HCl 5 mM", "result": 69.1, "unit": "kcal/mol"}]}]}
